Source: patent US20230391832A1, “CO[…]-BINDING POLYPEPTIDES AND METHODS OF USING THE SAME” (Isolere Bio, Inc., priority 2022, published 2023)

Experiments:
AAV2 capsids = assay: ELISA cross-reactivity, AAV2 (FIG. 3A); type: binding
Description: (§1) The control sequence (i.e. the human polycystic kidney domain 2, which is known to bind to AAV9 capsids) is labeled “C” in each graph.
(§2) Seven of the variants of Table C were screened for cross-reactivity to AAV2, AAV5, and AAV8.

AAV9 full capsids = assay: pH dependence of binding by ELISA (acidic vs neutral elution); conditions: purified polypeptide 1 μM; citric acid pH 3, 4 or 5 vs TBS pH 7.2; FIG. 4
Protocol: The pH dependence of binding of the polypeptides of Table C was evaluated by ELISA. Initially, the bacterial lysates of cultures expressing the polypeptides of Table C were incubated in a citric acid solution (pH 4.0) containing AAV9 capsids for 30 minutes. Subsequently, the solution was washed in Tris-Buffered Saline (TBS), which contained 0.05% TWEEN® 20, at neutral pH.
The five polypeptides were expressed and purified via a C-terminal 6X-His tag. The purified polypeptides (1 μM) were incubated with an ELISA plate that was coated with AAV9 full capsids. The polypeptides were eluted from the ELISA plate with a citric acid solution at pH 3, 4, or 5 (acidic elution) or in the TBS solution described above at pH 7.2 (neutral elution). The ELISA signal from the protein that was still bound to the AAV9 capsid was measured. The post elution % ligand remaining bound to AAV9 was calculated by dividing the signal after pH 3, 4, or 5 incubation by the signal after pH 7.2 incubation, and multiplying by 100.

AAV9 capsids = conditions: cited from earlier work
AAV5 capsids = assay: ELISA cross-reactivity, AAV5 (FIG. 3B); type: binding
Description: as §1, §2

[1] = tested on: AAV full capsids vs AAV empty capsids; conditions: cited from earlier work
AAV8 capsids = assay: ELISA cross-reactivity, AAV8 (FIG. 3C); type: binding
Description: as §1, §2

B1: PKD2 control protein: N-terminal His-tagged polycystic kidney domain 2 (PKD2 domain) from the AAV receptor, known to bind AAV9 capsids (protein)
chain: IAIVSPQFQEISLPTTSTVIDGSQSTDDDKIVQYHWEELKGPLREEKISEDTAILKLSKLVPGNYTFSLTVVDSDGATNSTTANLTVNKA
modifications: left off: small tags and cut ends
AAV2 capsids
  binding / cross-reactivity to AAV2: cross reacted strongly
AAV9 full capsids
  AAV9 binding signal after acidic elution compared to neutral elution: reduced AAV9 binding signal
AAV9 capsids
  affinity to AAV9 capsids (known): known affinity to AAV9 capsids
AAV5 capsids
  binding / cross-reactivity to AAV5: bound poorly or very weakly
[1]
  discrimination between full and empty capsids (known): no discrimination between full and empty capsids
AAV8 capsids
  binding / cross-reactivity to AAV8: bound poorly or very weakly
